Data reported in patent US20140221622A1 (AbbVie / Abbott, published 2014).
Positions count from the first letter of the chain named. Like-named read-outs stand apart in the source and are kept apart here.

Experiments:
[1] = target: EGFR on EGFR-expressing target cells (UniProt P00533 25-1210, limits assumed); test: cell-based or functional assay
CD3 on Jurkat cells = target: T1, CD3 on Jurkat cells (UniProt P07766 23-207); test: flow cytometry on Jurkat cells, Alexa Fluor 488 anti-human IgG Fc
T1 construct: whole, on cells; CD3 is a multi-chain complex; also called CD3 antigen
Experimental: 0.5×10⁶ of Jurkat or NCI-N87 cells were washed with FACS buffer (1% BSA/PBS) and resuspended in 50 ul of FACS buffer. mAbs or Fab-bodies were prepared in 50 ul of FACS buffer and mixed with cells and incubated at 4° C. for 1 hr.

[2] = target: T2, c-Met on tumor cell lines (A549, IM-95, SNU-5, SNU-620) (UniProt P08581 25-1390, limits assumed); test: cell-based or functional assay
biotin-labeled cMet [3] = target: T3, biotin-labeled cMet (UniProt P08581 25-932, limits assumed, biotin label (site not stated)); test: c-Met binding ELISA by the method of Example 1.3
T3 construct: also called cMet antigen

biotin-labeled cMet [4] = target: T3, biotin-labeled cMet; test: ELISA: antibody captured on anti-IgG Fc coat, bound biotin-labeled cMet detected with streptavidin-HRP
Experimental: (§1) cMet binding ELISA was performed to characterize the antigen binding property of cMet antibodies. 96-well ELISA plates were coated with 100 μl/well 5 μg/ml anti-mouse IgG Fc in PBS at 4° C. overnight. After 3 washes with PBS/0.05% Tween®20, the plates were blocked with 5% milk in PBS for 1 hour at room temperature. After another 3 washes with PBS/0.05% Tween®20, 100 μl cMet antibody was added to each well followed by an incubation of 1 hour at room temperature. Binding biotin-labeled cMet was detected by Streptavidin-horseradish peroxidase (KPL, Gaithersburg, Md.) and tetramethylbenzidine (Thermo Scientific, Rockford, Ill.). Final absorbances were acquired at 450 nm after stopping the reactions with 2 mol/L H₂SO₄. […] The terms EC₅₀ and IC₅₀ may be used interchangeably in this Example to reflect the concentration of the antibody which induces a response halfway between the baseline and the maximum after a specified exposure time.

[5] = target: T2, c-Met on tumor cell lines (A549, IM-95, …); test: cell-based or functional assay; remark: listed apart in the source
[6] = target: T4, Neonatal Fc receptor (FcRn) on CHO-FcRnGPI cells; test: flow cytometry on CHO-FcRnGPI cells, pH 6.4
T4 construct: whole, on cells; nothing more is said; also called FcRn receptors
Experimental: CHO-FcRnGPI cells (Stable FcRn receptor expressor) and CHO-pBudl l cells (non-FcRn expressor) were aliquotted into 96-well plates at 1×10⁵ cells/well. Cells were resuspended in 150 μl FACS buffer. […] 30 μl of diluted antibody or half-Ig binding protein was added to each well and incubated on ice for 1 hour. Following 2 washes with FACS buffer, 50 μl of secondary antibody R-phycoerythrin-conjugated AfiniPure F(ab′)2 Fragment goat anti-human IgG (Jackson ImmunoResearch, West Grove, Pa.) diluted in FACS buffer pH 6.4 or pH7.4 was added. The mixture was incubated for 30 min on ice. The cells were resuspended in 100 μl PBS with 1% FBS (Invitrogen, Carlsbad, Calif.) and 2 μg/ml propidium iodide (Invitrogen, Carlsbad, Calif.) of the corresponding pH. Final FACS data were acquired on a FACScan (Becton Dickinson, Franklin Lakes, N.J.).

[7] = target: T5, rhcMetECD (cMet extracellular domain) (human, UniProt P08581 25-932); test: SPR (Biacore 3000), apparent stoichiometry at saturating rhcMetECD
T5 construct: extracellular domain; also called cMet antigen
Text: Unreacted moieties on the biosensor surface were blocked with ethanolamine. Modified carboxymethyl dextran surface in flowcell 2 and 4 was used as a reaction surface. Unmodified carboxymethyl dextran without goat anti-human IgG in flow cell 1 and 3 was used as the reference surface. For kinetic analysis, rate equations derived from the 1:1 Langmuir binding model were fitted simultaneously to association and dissociation phases of all ten injections (using global fit analysis) using the Bioevaluation 4.0.1 software. Purified MBody samples were diluted in HEPES-buffered saline for capture across goat anti-human IgG Fc specific reaction surfaces and injected over reaction matrices at a flow rate of 5 ml/min. […] The equilibrium dissociation constant (M) of the reaction between MBody and rhcMetECD was then calculated from the kinetic rate constants by the following formula: KD=koff/kon. Aliquots of rhcMetECD samples were also simultaneously injected over a blank reference and reaction CM surface to record and subtract any nonspecific binding background to eliminate the majority of the refractive index change and injection noise. […] The apparent stoichiometry of the captured MBody-rhcMetECD complex was calculated under saturating binding conditions (steady-state equilibrium) using the following formula:

biotin-labeled cMet [8] = target: T3, biotin-labeled cMet; test: ELISA: antibody captured on anti-IgG Fc coat, bound biotin-labeled cMet detected with streptavidin-HRP; remark: listed apart in the source
Experimental: as §1

[9] = target: T5, rhcMetECD (cMet extracellular domain); test: SPR (Biacore 3000), binding protein captured on anti-human IgG Fc, rhcMetECD injected, 1:1 Langmuir fit, 25 C
Experimental: The kinetics of MBody binding to rhcMetECD (extracellular domain) was determined by surface plasmon resonance-based measurements with a Biacore 3000 instrument (Biacore AB, Uppsala, Sweden) using HBS-EP (10 mM HEPES, pH 7.4, 150 mM NaCl, 3 mM EDTA, and 0.005% surfactant P20) at 25° C. […] Approximately, 5000 RU of goat anti-human IgG Fcγ fragment specific polyclonal antibody (Pierce Biotechnology Inc, Rockford, Ill.) diluted in 10 mM sodium acetate (pH 4.5) was directly immobilized across a CM5 research grade biosensor chip using a standard amine coupling kit according to manufacturer's instructions and procedures at 25 mg/ml. Unreacted moieties on the biosensor surface were blocked with ethanolamine. Modified carboxymethyl dextran surface in flowcell 2 and 4 was used as a reaction surface. Unmodified carboxymethyl dextran without goat anti-human IgG in flow cell 1 and 3 was used as the reference surface. For kinetic analysis, rate equations derived from the 1:1 Langmuir binding model were fitted simultaneously to association and dissociation phases of all ten injections (using global fit analysis) using the Bioevaluation 4.0.1 software. Purified MBody samples were diluted in HEPES-buffered saline for capture across goat anti-human IgG Fc specific reaction surfaces and injected over reaction matrices at a flow rate of 5 ml/min. […] The equilibrium dissociation constant (M) of the reaction between MBody and rhcMetECD was then calculated from the kinetic rate constants by the following formula: KD=koff/kon. Aliquots of rhcMetECD samples were also simultaneously injected over a blank reference and reaction CM surface to record and subtract any nonspecific binding background to eliminate the majority of the refractive index change and injection noise. Surfaces were regenerated with two subsequent 25 ml injections of 10 mM Glycine (pH 1.5) at a flow rate of 5 ml/min.

[10] = target: T6, CD40 on CD40-overexpressing HEK 293 cells (UniProt P25942 21-277, limits assumed); test: cell-based or functional assay
[11] = target: T6, CD40 on CD40-overexpressing HEK 293 …; test: flow cytometry on CD40-overexpressing HEK 293 cells, APC anti-human Fc
Experimental: Followed by 30 min incubation on ice with an APC-conjugated anti-human Fc antibody. Cells then are washed twice and resuspended in PBS/FBS. Fluorescence was measured using a Becton Dickinson FACSCalibur (Becton Dickinson, San Jose, Calif.).

[12] = target: T6, CD40 on CD40-overexpressing HEK 293 …; test: as above; remark: listed apart in the source
Experimental: First, the CD40-overexpressing HEK 293 cells were stained with hIgG1 or testing material at a range of 0.01 μg/ml to 10 μg/ml. Followed by 30 min incubation on ice with an APC-conjugated anti-human Fc antibody. Cells then are washed twice and resuspended in PBS/FBS. Fluorescence was measured using a Becton Dickinson FACSCalibur (Becton Dickinson, San Jose, Calif.).
The binding of proteins were examined by FACS.

T6 sequence (P25942 21-277 limits assumed): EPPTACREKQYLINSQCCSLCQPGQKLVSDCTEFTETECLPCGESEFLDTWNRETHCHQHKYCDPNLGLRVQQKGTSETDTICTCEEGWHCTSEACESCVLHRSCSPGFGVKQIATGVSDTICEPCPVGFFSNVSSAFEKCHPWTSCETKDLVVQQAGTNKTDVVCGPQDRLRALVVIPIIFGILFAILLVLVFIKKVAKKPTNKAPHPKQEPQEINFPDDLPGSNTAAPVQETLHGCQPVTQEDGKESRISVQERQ
T5 sequence (P08581 25-932): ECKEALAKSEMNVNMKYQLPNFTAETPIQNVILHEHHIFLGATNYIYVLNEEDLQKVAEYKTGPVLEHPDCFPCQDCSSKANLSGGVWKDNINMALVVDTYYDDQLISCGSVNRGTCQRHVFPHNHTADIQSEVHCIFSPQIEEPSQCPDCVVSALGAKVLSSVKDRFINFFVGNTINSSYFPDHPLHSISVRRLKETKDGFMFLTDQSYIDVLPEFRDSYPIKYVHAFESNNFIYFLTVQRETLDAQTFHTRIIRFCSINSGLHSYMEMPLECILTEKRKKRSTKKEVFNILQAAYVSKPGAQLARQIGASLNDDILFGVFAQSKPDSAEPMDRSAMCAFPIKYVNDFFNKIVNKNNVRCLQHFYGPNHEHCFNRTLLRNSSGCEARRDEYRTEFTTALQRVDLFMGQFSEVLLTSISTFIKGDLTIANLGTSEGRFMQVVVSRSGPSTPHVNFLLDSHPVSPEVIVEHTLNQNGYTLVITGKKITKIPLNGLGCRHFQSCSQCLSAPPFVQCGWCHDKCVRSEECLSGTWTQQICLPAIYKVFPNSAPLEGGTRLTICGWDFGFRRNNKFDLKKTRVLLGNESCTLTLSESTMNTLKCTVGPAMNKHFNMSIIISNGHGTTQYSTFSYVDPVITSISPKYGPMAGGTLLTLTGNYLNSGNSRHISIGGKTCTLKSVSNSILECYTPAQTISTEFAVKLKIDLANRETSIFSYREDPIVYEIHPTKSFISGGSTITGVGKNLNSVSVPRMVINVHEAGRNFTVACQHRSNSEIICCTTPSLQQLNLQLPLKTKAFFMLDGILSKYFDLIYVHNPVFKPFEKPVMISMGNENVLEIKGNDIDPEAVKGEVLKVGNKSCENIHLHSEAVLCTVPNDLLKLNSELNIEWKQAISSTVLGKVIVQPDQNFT
T3 sequence (P08581 25-932 limits assumed): as the sequence (P08581 25-932) above
T2 sequence (P08581 25-1390 limits assumed): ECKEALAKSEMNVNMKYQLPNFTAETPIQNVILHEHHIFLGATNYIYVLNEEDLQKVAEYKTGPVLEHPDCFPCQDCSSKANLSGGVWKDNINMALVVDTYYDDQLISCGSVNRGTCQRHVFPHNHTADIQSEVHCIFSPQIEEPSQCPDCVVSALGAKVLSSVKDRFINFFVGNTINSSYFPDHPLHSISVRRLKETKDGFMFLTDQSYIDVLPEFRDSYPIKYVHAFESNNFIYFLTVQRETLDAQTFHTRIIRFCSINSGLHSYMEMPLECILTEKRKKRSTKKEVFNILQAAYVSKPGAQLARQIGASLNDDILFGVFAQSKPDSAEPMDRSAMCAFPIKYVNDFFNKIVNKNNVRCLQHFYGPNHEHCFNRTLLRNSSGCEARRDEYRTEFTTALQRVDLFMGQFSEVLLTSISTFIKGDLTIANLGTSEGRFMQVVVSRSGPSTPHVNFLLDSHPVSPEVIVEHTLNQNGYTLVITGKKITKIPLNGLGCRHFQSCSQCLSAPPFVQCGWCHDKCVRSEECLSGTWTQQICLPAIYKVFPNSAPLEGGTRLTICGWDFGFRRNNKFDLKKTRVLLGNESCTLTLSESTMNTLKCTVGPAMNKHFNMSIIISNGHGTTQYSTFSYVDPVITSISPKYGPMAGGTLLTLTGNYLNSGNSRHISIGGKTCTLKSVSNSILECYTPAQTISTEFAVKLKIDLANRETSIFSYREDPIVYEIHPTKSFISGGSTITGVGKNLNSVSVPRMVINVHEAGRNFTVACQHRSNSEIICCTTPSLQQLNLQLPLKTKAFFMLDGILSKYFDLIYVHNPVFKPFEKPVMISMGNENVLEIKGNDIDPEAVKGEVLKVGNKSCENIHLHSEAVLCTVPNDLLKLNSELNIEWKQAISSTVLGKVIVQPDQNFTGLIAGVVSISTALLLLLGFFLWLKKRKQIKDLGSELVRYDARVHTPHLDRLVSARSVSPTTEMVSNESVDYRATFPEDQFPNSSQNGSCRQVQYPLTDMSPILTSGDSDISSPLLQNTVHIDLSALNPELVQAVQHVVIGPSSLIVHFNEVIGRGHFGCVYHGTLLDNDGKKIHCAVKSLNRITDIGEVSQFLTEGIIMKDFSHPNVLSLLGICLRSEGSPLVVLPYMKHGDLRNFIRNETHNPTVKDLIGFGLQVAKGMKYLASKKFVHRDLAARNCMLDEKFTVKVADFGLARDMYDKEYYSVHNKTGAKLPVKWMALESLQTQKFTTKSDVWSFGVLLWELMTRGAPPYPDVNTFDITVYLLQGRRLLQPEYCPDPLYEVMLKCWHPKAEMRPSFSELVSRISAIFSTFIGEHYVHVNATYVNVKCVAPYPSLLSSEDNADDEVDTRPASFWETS
T4 sequence (P55899 24-297, chain 1 of 2): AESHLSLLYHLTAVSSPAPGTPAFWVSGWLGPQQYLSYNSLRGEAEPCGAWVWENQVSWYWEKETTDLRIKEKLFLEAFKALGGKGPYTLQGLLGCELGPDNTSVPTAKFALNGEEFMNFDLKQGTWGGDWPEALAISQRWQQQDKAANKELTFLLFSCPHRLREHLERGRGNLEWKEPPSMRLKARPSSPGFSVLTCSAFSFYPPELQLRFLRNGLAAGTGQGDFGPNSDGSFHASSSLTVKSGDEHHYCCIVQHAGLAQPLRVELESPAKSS
T4 sequence (P61769 21-119, chain 2 of 2, further chain): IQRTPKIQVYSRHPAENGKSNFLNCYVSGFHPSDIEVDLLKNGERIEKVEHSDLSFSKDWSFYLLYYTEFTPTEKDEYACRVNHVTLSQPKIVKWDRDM

B1: DB001 DVD-Ig (CD3 and EGFR) (bispecific antibody)
VH: QVQLQESGPGLVKPSQTLSLTCTVSGYSISSDFAWNWIRQPPGKGLEWMGYISYSGNTRYQPSLKSRITISRDTSKNQFFLKLNSVTAADTATYYCVTAGRGFPYWGQGTLVTVSSASTKGPEVQLVESGGGLVQPGGSLRLSCAASGFTFSTYAMNWVRQAPGKGLEWVGRIRSKYNNYATYYADSVKDRFTISRDDSKNTAYLQMNSLRAEDTAVYYCTRHGNFGNSYVSWFAYWGQGTLVTVSS
VL: DIQMTQSPSSMSVSVGDRVTITCHSSQDINSNIGWLQQKPGKSFKGLIYHGTNLDDGVPSRFSGSGSGTDYTLTISSLQPEDFATYYCVQYAQFPWTFGGGTKLEIKTVAAPSVFIFPPDAQVTQSPSSLSASVGDRVTITCRSSTGAVTTSNYANWVQEKPGKLFKGLIGGTNKRAPGVPSRFSGSGSGTDATLTISSLQPEDFATYFCALWYSNLWVFGGGTKVEIKR
notes: also called parental DVD-Ig
- Redirected Cytotoxicity (rCTL), EC50 [1]: 1.5 nM
- EC50 (CD3 on Jurkat cells): 74 nM

B2: Anti-human c-Met antibody 5D5 (antibody, V domains shown)
VH: QVQLQQSGPELVRPGASVKMSCRASGYTFTSYWLHWVKQRPGQGLEWIGMIDPSNSDTRFNPNFKDKATLNVDRSSNTAYMLLSSLTSADSAVYYCATYGSYVSPLDYWGQGTSVTVSS
VL: DFMMSQSPSSLTVSVGEKVTVSCKSSQSLLYTSSQKNYLAWYQQKPGQSPKLLIYWASTRESGVPDRFTGSGSGTDFTLTITSVKADDLAVYYCQQYYAYPWTFGGGTKLELKR
notes: VH and VL are those cloned from hybridoma HB-11895 (5D5.11.6); also called bivalent antibody 5D5
- Inhibition of HGF-induced phospho-c-Met IC50 (A549 cells) [2]: 1.4 nM
- Inhibition of IM-95 proliferation (HGF-dependent) IC50 [2]: 5.8 nM
- Inhibition of SNU-5 proliferation (constitutively active c-Met) IC50 [2]: > 600 nM
- EC50 (biotin-labeled cMet [3]): 0.08 nM

B3: 5D5 Fab (Fab, V domains shown)
VH: B2 VH
VL: B2 VL
- Inhibition of HGF-induced phospho-c-Met IC50 (A549 cells) [2]: 5.9 nM
- Inhibition of IM-95 proliferation (HGF-dependent) IC50 [2]: 55.7 nM
- Inhibition of SNU-5 proliferation (constitutively active c-Met) IC50 [2]: > 600 nM
- Inhibition/induction of SNU-620 proliferation (constitutively active c-Met but still HGF-inducible) IC50 [2]: > 600 nM

B4: cMet AA5 Ig (antibody, human IgG1, kappa, V domains shown)
VH: B2 VH
VL: B2 VL
notes: the intended AA5 mutation is not visible; also called Anti-cMet-AA5
- EC50 (biotin-labeled cMet [4]): 1.81 nM

B5: cMet Ig (anti-cMet antibody, 5D5 variable domains on human Cg1/Ck) (antibody, human IgG1, kappa)
heavy: not shown
light: DFMMSQSPSSLTVSVGEKVTVSCKSSQSLLYTSSQKNYLAWYQQKPGQSPKLLIYWASTRESGVPDRFTGSGSGTDFTLTITSVKADDLAVYYCQQYYAYPWTFGGGTKLELKRTVAAPSVFIFPPSDEQLKSGTASVVCLLNNFYPREAKVQWKVDNALQSGNSQESVTEQDSKDSTYSLSSTLTLSKADYEKHKVYACEVTHQGLSSPVTKSFNRGEC
notes: VH/VL cloned from hybridoma HB-11895 (5D5.11.6) into pHybE-hCg1,z,non-a and pHybE-hCk; also called cMet mAb; parental cMet mAb
- Inhibition of IM95 Proliferation, EC50 [5]: 0.17 µg/mL
- EC50 [6]: 53.3 µg/mL
- Stoichiometry [7]: 1.51
- EC50 (biotin-labeled cMet [4]): 0.3 nM
- EC50 (biotin-labeled cMet [8]): 0.35 nM
- Kd [9]: 2.67 nM
- koff [9]: 0.000214 s⁻¹
- kon [9]: 80300 M⁻¹ s⁻¹

B6: cMet mAb KH (cMet mAb with knobs-into-holes mutations) (antibody, human IgG1, kappa)
heavy 1: not shown
heavy 2: not shown
light: B5 light
- EC50 [6]: 44.4 µg/mL
- Stoichiometry [7]: 1.53
- Kd [9]: 2.08 nM
- koff [9]: 0.000195 s⁻¹
- kon [9]: 93600 M⁻¹ s⁻¹

B7: cMet AA2 HK MBody (antibody, human IgG1, kappa)
heavy 1: not shown
heavy 2: not shown
light: B5 light
- Inhibition of IM95 Proliferation, EC50 [5]: 0.23 µg/mL
- EC50 [6]: 31.5 µg/mL

B8: cMet AA4 Ig (antibody, human IgG1, kappa, V domains shown)
VH: B2 VH with V103A, S104A
VL: B2 VL
notes: HC CDR3 alanine-scanning mutant paired with the common cMet LC; also called Anti-cMet-AA4
- EC50 (biotin-labeled cMet [4]): 1.24 nM

B9: cMet AA6 HK MBody (antibody, human IgG1, kappa)
heavy 1: not shown
heavy 2: not shown
light: B5 light
- Inhibition of IM95 Proliferation, EC50 [5]: 2.73 µg/mL
- EC50 [6]: 47.1 µg/mL

B10: cMet AA6 KH MBody (antibody, human IgG1, kappa)
heavy 1: not shown
heavy 2: not shown
light: B5 light
- Inhibition of IM95 Proliferation, EC50 [5]: 1.86 µg/mL
- EC50 [6]: 51.1 µg/mL

B11: cMet AA3 HK MBody (antibody, human IgG1, kappa)
heavy 1: not shown
heavy 2: not shown
light: B5 light
- Inhibition of IM95 Proliferation, EC50 [5]: 1.6 µg/mL
- EC50 [6]: 34.8 µg/mL

B12: cMet AA1 Ig (antibody, human IgG1, kappa, V domains shown)
VH: B2 VH with T98A
VL: B2 VL
notes: HC CDR3 alanine-scanning mutant paired with the common cMet LC; also called Anti-cMet-AA1
- EC50 (biotin-labeled cMet [4]): 7.25 nM

B13: cMet AA3 KH MBody (antibody, human IgG1, kappa)
heavy 1: not shown
heavy 2: not shown
light: B5 light
- Inhibition of IM95 Proliferation, EC50 [5]: 2.14 µg/mL
- EC50 [6]: 38 µg/mL

B14: Anti-CD40 Ig (21.4.1 variable domains on human Cg1/Ck) (antibody, human IgG1, kappa)
heavy: not shown
light: DIQMTQSPSSVSASVGDRVTITCRASQGIYSWLAWYQQKPGKAPNLLIYTASTLQSGVPSRFSGSGSGTDFTLTISSLQPEDFATYYCQQANIFPLTFGGGTKVEIKRTVAAPSVFIFPPSDEQLKSGTASVVCLLNNFYPREAKVQWKVDNALQSGNSQESVTEQDSKDSTYSLSSTLTLSKADYEKHKVYACEVTHQGLSSPVTKSFNRGEC
- agonist activity, NFkB-SEAP reporter in HEK 293 cells, EC50 [10]: 0.12 µg/mL
- EC50 [11]: 0.24 µg/mL
- EC50 [12]: 0.084 µg/mL

B15: Anti-CD40 YA (antibody, human IgG1, kappa, V domains shown)
VH: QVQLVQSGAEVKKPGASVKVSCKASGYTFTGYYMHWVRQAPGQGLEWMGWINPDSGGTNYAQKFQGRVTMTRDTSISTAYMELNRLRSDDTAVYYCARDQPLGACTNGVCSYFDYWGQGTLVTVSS
VL: DIQMTQSPSSVSASVGDRVTITCRASQGIYSWLAWYQQKPGKAPNLLIYTASTLQSGVPSRFSGSGSGTDFTLTISSLQPEDFATYYCQQANIFPLTFGGGTKVEIKR
- EC50 [12]: 0.095 µg/mL

B16: Anti-CD40 LA (antibody, human IgG1, kappa, V domains shown)
VH: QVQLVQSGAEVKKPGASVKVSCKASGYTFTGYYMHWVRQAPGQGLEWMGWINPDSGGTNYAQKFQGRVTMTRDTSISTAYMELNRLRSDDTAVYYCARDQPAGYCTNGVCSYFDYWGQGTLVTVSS
VL: B15 VL
- EC50 [12]: 0.189 µg/mL

B17: Anti-CD40 LYNV (antibody, human IgG1, kappa, V domains shown)
VH: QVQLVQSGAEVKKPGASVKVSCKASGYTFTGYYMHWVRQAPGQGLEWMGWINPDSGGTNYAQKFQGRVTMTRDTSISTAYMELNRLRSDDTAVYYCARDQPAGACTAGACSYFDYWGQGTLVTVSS
VL: B15 VL
- binding result [12]: no binding (tested: 0.01 µg/ml to 10 µg/ml)

B18: Anti-CD40 YNV (antibody, human IgG1, kappa, V domains shown)
VH: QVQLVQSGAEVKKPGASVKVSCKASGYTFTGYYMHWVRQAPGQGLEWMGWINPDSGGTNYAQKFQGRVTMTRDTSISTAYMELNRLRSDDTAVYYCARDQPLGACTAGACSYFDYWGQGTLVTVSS
VL: B15 VL
- binding result [12]: no binding (tested: 0.01 µg/ml to 10 µg/ml)

B19: Anti-CD40 VA (antibody, human IgG1, kappa, V domains shown)
VH: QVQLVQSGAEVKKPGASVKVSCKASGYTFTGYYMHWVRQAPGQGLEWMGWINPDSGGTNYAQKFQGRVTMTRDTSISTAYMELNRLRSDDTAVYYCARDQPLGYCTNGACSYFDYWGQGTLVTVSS
VL: B15 VL
- EC50 [12]: 0.125 µg/mL

B20: Anti-CD40 NA (antibody, human IgG1, kappa, V domains shown)
VH: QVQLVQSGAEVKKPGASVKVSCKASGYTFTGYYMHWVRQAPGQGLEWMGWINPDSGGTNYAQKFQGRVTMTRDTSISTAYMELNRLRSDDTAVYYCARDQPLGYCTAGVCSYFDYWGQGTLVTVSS
VL: B15 VL
- EC50 [12]: 2.12 µg/mL

B21: MetMAb1 (antibody, V domains shown)
VH: EVQLVESGGGLVQPGGSLRLSCAASGYTFTSYWLHWVRQAPGKGLEWVGMIDPSNSDTRFNPNFKDRFTISADTSKNTAYLQMNSLRAEDTAVYYCATYRSYVTPLDYWGQGTLVTVSS
VL: DIQMTQSPSSLSASVGDRVTITCKSSQSLLYTSSQKNYLAWYQQKPGKAPKLLIYWASTRESGVPSRFSGSGSGTDFTLTISSLQPEDFATYYCQQYYAYPWTFGQGTKVEIKR
notes: also called monovalent c-Met antibody MetMAb1
- Inhibition of HGF-induced phospho-c-Met IC50 (A549 cells) [2]: 3.8 nM
- Inhibition of IM-95 proliferation (HGF-dependent) IC50 [2]: 17.4 nM
- Inhibition of SNU-5 proliferation (constitutively active c-Met) IC50 [2]: > 600 nM
- Inhibition/induction of SNU-620 proliferation (constitutively active c-Met but still HGF-inducible) IC50 [2]: > 600 nM
- EC50 (biotin-labeled cMet [3]): 0.27 nM

B22: anti-cMet h5D5 Fab-body (antibody, human IgG1, kappa, V domains shown)
VH: B21 VH
VL: B21 VL
notes: Monovalent Fab-Fc heterodimer: LFc chain (VL-CL-linker-Fc knob) and HFc chain (VH-CH1-linker-Fc hole)
- Inhibition of HGF-induced phospho-c-Met IC50 (A549 cells) [2]: 2.6 nM
- Inhibition of IM-95 proliferation (HGF-dependent) IC50 [2]: 12.8 nM
- Inhibition of SNU-5 proliferation (constitutively active c-Met) IC50 [2]: 4.1 nM
- Inhibition/induction of SNU-620 proliferation (constitutively active c-Met but still HGF-inducible) IC50 [2]: > 600 nM
- EC50 (biotin-labeled cMet [3]): 0.24 nM
